# Results as given in paper PMC5030251, “Metal-Induced Stabilization and Activation of Plasmid Replication Initiator RepB” (Frontiers in Molecular Biosciences, 2016).
# B1: RepB, replication initiator protein of the streptococcal plasmid pMV158 (enzyme, UniProt P13921 1-210, looked up)
# chain: MAKEKARYFTFLLYPESIPSDWELKLETLGVPMAISPLHDKDKSSIKGQKYKKAHYHVLYIAKNPVTADSVRKKIKLLLGEKSLAMVQVVLNVENMYLYLTHESKDAIAKKKHVYDKADIKLINNFDIDRYVTLDVEEKTELFNVVVSLIRAYTLQNIFDLYDFIDENGETYGLTINLVNEVIAGKTGFMKLLFDGAYQRSKRGTKNEER
# notes: RepB, replication initiator (Rep) protein encoded by plasmid pMV158; 210 amino acid polypeptide purified as a hexamer; In assay a2 the protein had been heated beyond its first, irreversible thermal transition (OBD denatured); also called RepB6; full-length hexameric RepB; source: purified as described previously (Ruiz-Masó et al., 2004; Boer et al., 2009)
# Target: the molecule itself
# Experiment: AUC; sedimentation equilibrium; RepB6 samples heated to temperatures from 25°C up to 45°C (end of the first thermal transition)
protein,measurement,value
B1,stoichiometry N,~6
